Proliferation of the GM-CSF dependent FDC-P1 cell line (Biotrak BrdU cell proliferation ELISA), 10 ng per well data for one substance are collected here from patent publication US7629440.

This assay has as its target murine GM-CSF receptor (murine) (UniProt Q00941). Description: cell-based or functional assay.
UniProt Q00941, sequence (Q00941 30-388, chain 1 of 2): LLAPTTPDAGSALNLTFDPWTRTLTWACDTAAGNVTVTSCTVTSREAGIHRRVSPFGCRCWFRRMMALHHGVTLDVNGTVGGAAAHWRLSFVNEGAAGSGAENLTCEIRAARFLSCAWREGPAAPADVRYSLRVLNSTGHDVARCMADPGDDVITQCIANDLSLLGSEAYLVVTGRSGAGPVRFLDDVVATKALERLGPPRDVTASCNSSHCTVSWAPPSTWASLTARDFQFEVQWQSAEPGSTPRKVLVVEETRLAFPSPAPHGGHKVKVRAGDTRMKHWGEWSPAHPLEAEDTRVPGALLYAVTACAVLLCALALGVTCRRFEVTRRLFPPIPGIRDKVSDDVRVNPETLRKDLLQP
UniProt Q00941, sequence (P26955 23-896, chain 2 of 2, further chain): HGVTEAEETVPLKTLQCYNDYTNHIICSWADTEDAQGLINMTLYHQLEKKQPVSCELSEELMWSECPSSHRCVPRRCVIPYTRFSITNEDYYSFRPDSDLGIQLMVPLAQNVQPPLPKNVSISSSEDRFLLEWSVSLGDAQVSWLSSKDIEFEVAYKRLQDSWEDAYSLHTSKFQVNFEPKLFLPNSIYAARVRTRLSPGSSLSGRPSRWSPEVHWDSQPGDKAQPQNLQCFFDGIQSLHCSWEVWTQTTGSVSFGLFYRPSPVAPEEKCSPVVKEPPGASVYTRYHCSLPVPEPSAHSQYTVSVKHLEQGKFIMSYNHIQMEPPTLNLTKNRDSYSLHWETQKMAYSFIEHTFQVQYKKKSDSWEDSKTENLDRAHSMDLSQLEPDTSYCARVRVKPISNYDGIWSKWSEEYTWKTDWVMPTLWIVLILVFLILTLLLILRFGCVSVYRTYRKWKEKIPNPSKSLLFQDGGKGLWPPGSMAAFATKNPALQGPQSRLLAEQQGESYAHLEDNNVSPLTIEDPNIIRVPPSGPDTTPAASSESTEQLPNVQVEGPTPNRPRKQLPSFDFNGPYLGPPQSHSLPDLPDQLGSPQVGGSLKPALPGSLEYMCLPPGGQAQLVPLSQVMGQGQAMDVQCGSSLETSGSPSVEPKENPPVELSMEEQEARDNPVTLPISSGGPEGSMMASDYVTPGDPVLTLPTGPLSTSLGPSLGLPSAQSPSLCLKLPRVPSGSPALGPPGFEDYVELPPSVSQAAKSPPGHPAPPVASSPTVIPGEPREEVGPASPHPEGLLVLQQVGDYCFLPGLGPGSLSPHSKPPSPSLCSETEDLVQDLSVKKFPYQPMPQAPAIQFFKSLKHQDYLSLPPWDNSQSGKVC

With “murine GM-CSF fused to the S. cerevisiae Gas1 GPI modification signal sequence (GPI-GM-CSF) (from UniProt P01587 18-141; P22146 470-528) (other; the values are: proliferation increase vs soluble GM-CSF)”, the proliferation of the GM-CSF dependent FDC-P1 cell line (Biotrak BrdU cell proliferation ELISA), 10 ng per well was 25%.
